Experiment: soluble on expression in E. coli; label from the status in PepcDB or PDB records

Sequence	soluble on expression in E. coli
GPGSMLGSPSDPPPRDAAGDAAAPVSAASSPSAALPVAAVYSTGSQALQAELHQLRERLRVSDEWNMRLQLQLQELLQLPQNEVQDMRQRMQDPDIAIPLLQCYDAVIHEKTEEVERLRREAVDLQTQLDAFRKDQLDVSNAVRMAEELAKSVQGKAAAEVQRYLEAVRELQEELVRLRIEVTRALDAENIAKQDALRIAERAASLETALEAAKQATSKAEAAREAAERKWTIQEQQAEEQEMGAVVQKAQLQRITQENADKAQELERLRAKMTHALRQASDNHAAHLRIVEERHRMIVEDLRSVNRTQELEVLKLRAQLARCDMTNPSGAGRGTGASSASTSSLRLQSTAELLEAQTRQAQEMELKRLHGEVSALQLQRDDAVRQCEQRTSRLQRDFDQQLQDAQRQLQSAQRSFSEARSRCEELEETKAAQEASLRKARDELRQAQQGGQQYRLSADSSARKLASAQQQLAEASKRFSTLQEEKQSAVRQAHERVSELEANVAQALQEVQSAKERAYAEVEEVQRRYEQLRLQNSKLQDDLREREAALVKKERERSILVAQIGRLEDGLEAHKRQMMESDRRVQQLEQQLIAMRQQQREGFLSLEQVKLQNAQLTRTRDQLAEMLQARSL	not soluble
MRISLPVAEAAAAGGRAGKHGKAITFLTPDDTAVYFDLKQVKIVDGHLPTHVFSLNCLRRYARMDSRNMMLHGANLDNSHLDVKVNFLFENFKHFSVFLKLTKSSK	soluble
MMRNSHTIENFERMPDGETSSLPDITNYQESVDENPVEECSAYSDTIATCSMCLQVAPHSQFFACTYPGCGYALKQKESVKSPTLFYRKERVLCGACAFLGDHAHHKAYLLKADKLAFLTASREIGGKLEMDMEEVCRLDKSHPVDNAMIIKSGGHVELEKISVVSFLSQAKTIEEWHSRHCMVNEMLSTIKYNREQGIDYLRKQSEKVMTLLNNAAQEIKSVSRTLPKQLTNQDKPHTSFGRRQHASQKNTEWANEEYSPFSSTCSESSTSTLHMAKALQSVDDEVTGGFGGFGFGFGASAVNKSLKGQIKSENYTSIAVTRLYKMLIRTEPKETALRRAADYLNELTHSKTEKKAVIEYMEKKHSIKWPEHII	not soluble
MASSVVFAATGSLSVPPLKSRRFYVNSSLDSDVSDMSVNAPKGLFPPEPVPYKGPKLKVAIIGAGLAGMSTAVELLDQGHEVDIYDSRTFIGGKVGSFVDRRGNHIEMGLHVFFGCYNNLFRLMKKVGAEKNLLVKDHTHTFINKDGTIGELDFRFPVGAPIHGIRAFLVTNQLKPYDKLRNSLALALSPVVKALVDPDGAMRDIRNLDSISFSDWFLSKGGTRASIQRMWDPVAYALGFIDCDNMSARCMLTIFSLFATKTEASLLRMLKGSPDVYLSGPIKQYITDRGGRIHLRWGCREILYDKSADGETYVTGLAISKATNKKIVKADVYVAACDVPGIKRLLPKEWRESRFFNDIYELEGVPVVTVQLRYNGWVTELQDIELARQLKRAVGLDNLLYTPDADFSCFADLALASPADYYIEGQGTLLQCVLTPGDPYMRMPNDKIIEKVAMQVTELFPSSRGLEVTWSSVVKIAQSLYREAPGKDPFRPDQKTPIKNFFLAGSYTKQDYIDSMEGATLSGRQASSYICDAGEELAELNKKLSSSATAVPDELSLV	not soluble
MSNQRDYTLIIDKSGSMSIIEPKFQKSRWELVQESTLALARKCDQLDANGITVYTFSGKFRRYDNVNASKVEQIFQENEPVGGTNLTAVLQDALNNFLQRKKSNQAPTGETILVITDGEPNDRRSVFEIIIQASKCLDADEELAISFMQIGNDPSATKFLQALDDQLMEVGAKFDIVDTVTFDEMEDLTLTEVLLNAIEDLEHHHHHH	soluble
GPISEFPVDFHYGVRVDVTLLSKIRRVNEHIKSATKTGVVQVHGSACTPTLSVLSSVGTAGVLGMRIKNALTPLVGHTEGSGDVSFSFRNTSVGSGFTHTRELFGANVLDAGIAFYRKGEACDTGAQPQFVRTTISYGDNLTSTVHKSVVDQKGILPFHDRMEAGGRTTRLMLCGKTGAFLLKWLRQQKTKEDQTVTVSVSETLSIVTFSLGGVSKIIDFKPETKPVSGWDGLKGKKSVDVGVVHTDALSRVSLESLIAALRMCKVPGWFTPGLIWHSNEILEVEGVPTGCQSGDVKLSVLLLEVNRSV	soluble
MGSDKIHHHHHHMAKQKDGFLGEQALVLPPAIVQRMKTDPATSILYITDIGYYPKAYNHFRERETPIDQYVFIYCTEGRGWFSLDGQKHPVVPNQYFILPAGLPHAYGADEKEPWTIYWIHFGGTLAPLYCTHRTCRLTDIKPGMHSRISYRTELFEEIFRVLKMGYSLENLSYASSVFHHYLGSLRYLREYREAFSEHRPAGEEDPVNAAIHYMKENLGKKLTLAELADYTGYSSSYFSNLFLKRTGYAPLSYFNQIKIQKACQFLDFTDMKVNQVCYRVGIEDAYYFSRLFSQIMGMSPREYKKVKKG	not soluble
ADRHYSPIDRFLLQADSALRTLLPFSGQPARPSPAIVEPDGELSEEDTRHIAGLMRINHTGEVCAQALYQGQSLTAKLPEVREAMEEAAEEEIDHLAWCEQRIRQLGSRPSVLNPIFYGLSFGVGAAAGLVSDRVSLGFVAATEDQVCKHLDEHLAQIPQEDRKSRAILEQMRIDEEQHSSNALAAGGLRFPAPVKLGMSLLAKV	not soluble
SAATVPATTRSDQTWDFSCNLDVSFESEEHALIAYTSLAVDKELQPDKVRRVMSVSNNKLSVHFEAIEARLLRASFSAFVDVLTLATRTIQEFGQK	soluble
GSHMNQCPEHSQLTTLGVDGKEFPEVHLGQWYFIAGAAPTKEELATFDPVDNIVFNMAAGSAPMQLHLRATIRMKDGLCVPRKWIYHLTEGSTDLRTEGRPDMKTELFSSSCPGGIMLNETGQGYQRFLLYNRSPHPPEKCVEEFKSLTSCLDSKAFLLTPRNQEACELSNN	soluble
DDLIEGYLSSEEYYHEESARYIQKFSKYVSENELSTSDRKAFGEWVKKENYINLTIFKDQELQYDSIYSESDYGKEKLTQYAQNHSHPVKFSDGEGRVIIDGFYSSRYYD	not soluble
MGSDKIHHHHHHMTCRRITFVPNFMIRDARVLRAGFVPREVEHRDAEVNHLSSVLEPITNGEPADTAIVTGPSGTGKTCISQFVTERLREEVLNVEATYVNCWRNYTRFRTLYQILDDFGETIDIHRQSTPHDELIDRLQQYDGPRTVIILDEVDQLEDPGIIYDLHSLPHFAVICIANKEEDLFSRVDDRLVSRLRSSEHVRMDKYHDEQLHDILAARVKGGLDQDVITTNQLDRIADAAAGDARLAIGILRTAASKADRESRERITDDILLNAAEDARAQIKQKNLDSLIPHQRLVYDVVREHGPLGPSEIYDHYKRKVDDPRTKRTIRTYLSKMTQYNVLEAEGTSRDREYSLVDSTAPSVTQ	not soluble
MGFFDRLKAGLAKTRERLLKAIPWGGNLEEVLEELEMALLAADVGLSATEEILQEVRASGRKDLKEAVKEKLVGMLEPDERRATLRKLGFNPQKPKPVEPKGRVVLVVGVNGVGKTTTIAKLGRYYQNLGKKVMFCAGDTFRAAGGTQLSEWGKRLSIPVIQGPEGTDPAALAYDAVQAMKARGYDLLFVDTAGRLHTKHNLMEELKKVKRAIAKADPEEPKEVWLVLDAVTGQNGLEQAKKFHEAVGLTGVIVTKLDGTAKGGVLIPIVRTLKVPIKFVGVGEGPDDLQPFDPEAFVEALLED	soluble
MFTQRKKWLSGVAAGLLMAASVSASAEEKILHIYNWSDYIAPDTLANFQKETGIKVVYDVFDSNEVLEGKLMAGSTGFDLVVPSASFLERQLSAGVFKPLDKSKLPNEKNLDPELLALVSKHDPDNKYAIPYLWATTGIGYNVEKVKAVLGEDAPVNSWDLVLKPENLEKLKSCGVSFLDAPSEIFATVLNYLGKDPNSTLTADYTGSATDLLLKLRPNIRYFHSSQYINDLANGDICVAVGWAGDIMQASNRAKEAKNGVNVAYSIPKEGALAFFDVFAMPTDAKNQDEAYQFLNYLMRPDVIANISNHVFYANANQAATPLVNAEVRDNPGIYPPADVRAKMFTLKVQDPKIDRVITRAWTKVKSGK	not soluble
MSLDKMKAITFFDLDGTLLDGTSQITPEITAAVAALKDNQILPLIATGRTLCEIQPIMKASGIDSAIVMNGQFIHYEGKTIYSDEFTTEECVSLHEHVKQRGHELAFYNERRIFCTGHTGTVKQAYDYIHSAVPEIDPTGYENDAVNMMLVLSQHGDDDEYYYERFPELTFYRNGPFSIDIVRKGVSKGSGVKNLFNTLGLNGIPTYAFGDGINDLALFEACDYGIAMGNAREELKEKATFISTKNTENGIVNGLKKFDLLEGHHHHHH	soluble

Reference: the DeepSol protein solubility set
